In patent US20140303084A1 (Biogen, published 2014):
Square brackets hold non-standard residues; d marks the D form. Primed or numbered codes have the meaning given here. Ends that are not written are not given here. * marks the point of attachment. Biotin = O=C1N[C@H]2[C@H](CS[C@H]2CCCCC(=O)*)N1; PEG2(3) = PEG2 spacer carrying biotin on Lys; NMeL = CN[C@@H](CC(C)C)C(=O)O

The binders below were run against T1, human Factor IXa (human, UniProt P00740 47-191; P00740 227-461) (assay: cell-based or functional assay).

| Binder | EC50, FXa generation assay with human FIXa [µM] |
| --- | --- |
| KLTCLASYCWLF-NH2 (not fully specified (bridges); cysteine pairing not given here) [compound 1] | 0.3 |

Target: T1, human Factor IXa
Assay: cell-based or functional assay
Remark: another data set of the same source

| Binder | EC50 [µM], FXa generation assay [µM] | EC50 [µM], FXa generation assay with hFIXa [µM] |
| --- | --- | --- |
| SGGSGKLTCLASYCWPFGSQVR | > 50 |  |
| SGRGGKLTCQASFCQLFGNGLS | < 0.5 |  |
| RCAQSRLPWLVSYCWLFSPYGM | > 5 |  |
| TLDSKNLQCLGSSCWLFSSGLS | > 20 |  |
| GEGGGKLSCVAIQCGLFKGLGR | > 50 |  |
| ERYRLDMTCMASQCWQFPPAAG | < 0.5 |  |
| MEGTRQPTCLASYCSPFQYVAP | > 20 |  |
| WHERQQLTCLASYCGLFVGQVA | < 0.5 |  |
| EGRRDKLTCLASYCWLVGHGQH | > 25 |  |
| RRAPGKLQCLASYCWLFWTAIA | < 0.5 |  |
| DAGPNKLRCLASYCQLFGGGHA | > 50 |  |
| DSRSAKRKCLASYCWLFGIGQA | > 20 |  |
| LRQRLAKTCVASYCWLFSLVAS | > 10 |  |
| LRTQPKVTGLASCSGLVNCSRD | > 20 |  |
| RYQRARLTCLASYCGLLFSMSA | > 15 |  |
| RRAPGKLQCLASYCWLFWTGAA | > 1 |  |
| TLLYQNRTCLASYCWLFDKRSV | > 50 |  |
| VDKGHQLRCQAGYCWLLGYNRE | > 50 |  |
| LLQIPNLTCLGSYCWLDNGVYA | > 50 |  |
| GFGSRKLTSLASYGWLIQDRLP | > 50 |  |
| APPGGKRMCLVSGCQLFPWSAS | > 50 |  |
| VAHYGKVTCLASYCQPLPSVGA | > 20 |  |
| {Biotin-PEG2(3)}-LYTAWIKCQFARLPGCALSGRW (cysteine pairing not given here) [Biotin-PEG2-LYTAWIKCQFARLPGCALSGRW] | > 10 |  |
| AWPYHKPTCLASQCWQFLAQGS | > 50 |  |
| HYARVQLRCLDGYCWLLTKSRM | > 10 |  |
| SYGRTKLTCLASSCWLFGQVHG | > 10 |  |
| RPGGGKVTCQASYCWPFLARAG | > 20 |  |
| QGQARKLACLASYCWLFPSSAG | > 50 |  |

| Binder | EC50 [µM], FXa generation assay [µM] | EC50 [µM], FXa generation assay with hFIXa [µM] |
| --- | --- | --- |
| AQLRRKLTCLASYCWLFGFFSP | > 1 |  |
| VGEHRKISCVASNCQLLRSGLA | > 20 |  |
| GAQLDKETCLASYCQLFSTVRR | > 20 |  |
| WVPQWKVTCLASCSRLFHGFDA | > 5 |  |
| GASSDKLTCRTRHCSMFQPLSV | > 20 |  |
| GSCRDQLTCLSSDRWQFFRRVS | > 20 |  |
| KEGFAQLPCLVCQGGLFSPRAI | > 20 |  |
| MAGMLKLTCFASYCGLFPLVSS | < 0.5 |  |
| SISGQQLTCRASHCWLNLPWHS | > 20 |  |
| QDGDGKLTCRASYCRRFLVGVH | > 50 |  |
| KLTCLASYCWLF-NH2 (not fully specified (bridges); cysteine pairing not given here) [compound 1] |  | < 0.5 |
| [dK][NMeL]TCLASYCWLF-NH2 (cysteine pairing not given here) [compound 2] | < 0.5 | < 0.5 |
| RSFTSELTCLASSCRRFHHVPP | > 20 |  |
| SGFGMKLTCLASYCGLFQGEIG | < 0.5 |  |
| HMQWGKLPCLASYCWLFWYGIG | > 1 |  |
| QDGVEKLTCLASYCWRFGDHGA | > 50 |  |
| RFQTTQLTCLGSASCLFNLSVR | > 1 |  |
| LLHAQKLSCLASYCWVFDAEWD | < 0.5 |  |
| SCVKHELKCLSSDSRLFSAVQR | > 20 |  |
| GCSSDKLTARTRHCSMFQPLSV | > 20 |  |
| AVAINKVPCVASYCQLFESKIH | > 20 |  |
| GVEDRQLTCLASSCWVFSRHSV | > 1 |  |
| GGALQQLTCPASYCWLFPMEHS | > 10 |  |
| LQELTKLTCLARSGWLVCNPGY | > 20 |  |
| YARDSTLTCQARTCQLVDYLGP | > 50 |  |
| GIQGSEVACRASFCRLFEQGHV | > 50 |  |
| VQRSTQLTCLYGGCRLFGWNYH | > 20 |  |

Target: T1, human Factor IXa
Assay: cell-based or functional assay
Remark: another data set of the same source

| Binder | EC50 (µM), FXa generation assay, without phospholipids [µM] |
| --- | --- |
| KLTCLASYCWLF-NH2 (not fully specified (bridges); cysteine pairing not given here) [compound 1] | 0.4 |
| [dK][NMeL]TCLASYCWLF-NH2 (cysteine pairing not given here) [compound 2] | 0.2 |
